Kd and koff data for five molecules are collected here from paper PMC8413711 (2021).

Test [1] addresses T1, SARS-CoV-2 RBD (SARS-CoV-2, UniProt P0DTC2 319-541). Nature of the test: SPR.
The target of test [2] is T1, SARS-CoV-2 RBD. Nature of the test: SPR. The source holds these as a separate data set. On the technique in general: In SPR one partner is held on a chip, and binding of the other changes the refractive index at the surface.

In general, Kd refers to a measure of binding affinity in units of concentration. A higher Kd goes with weaker binding. By koff is commonly meant the rate constant with which the complex falls apart. High values mean a short-lived complex, low ones a long-lived complex.

B1: BD-515 (antibody, V domains shown)
VH: EVQLVESGGGLVQPGGSLRLSCAASEFIVSRNYMSWVRQAPGKGLEWVSVIYSGGSTFYADSVKGRFTISRDNSKNTLYLQMNSLRAEDTGVYYCARDRGLVSDYWGQGTLVTVSS
VL: DIQMTQSPSSLSASVGDRVTITCQASQDINKYLNWYQQKPGKAPKLLIFDASHLETGVPSRFSASGSGTDFTFTISSLQPEDIATYYCHQYDNLPRTFGQGTRLEIK
As for B1, the Kd with SARS-CoV-2 RBD [1] was determined as 0.561 nM. This molecule also registered a koff with SARS-CoV-2 RBD [2] of 0.000389 s⁻¹.

B2: BD-503 (antibody, V domains shown)
VH: EVQLVESGGGLIQPGGSLRLSCAASGLIVSSNYMSWVRQAPGKGLEWVSVLYAGGSTDYAGSVKGRFTISRDNSKNTLYLQMNSLRAEDTAVYYCARDAAVYGIDVWGQGTTVTVSS
VL: not shown
In turn, B2 returned a Kd in the test with SARS-CoV-2 RBD [1] of 0.204 nM.

B3: BD-623 (antibody, V domains shown)
VH: EVQLVESGGGLVQPGGSLRLSCAASGFTVSSNYMSWVRQAPGKGLEWVSIIYSGGSTYYADSVKGRFTISRDNSKNTLYLQMNSLRAEDTAVYYCARDYAGRVWGQGTLVTVSS
VL: QSALTQPASVSGSPGQSITISCTGTSSDVGSYNLVSWYQQRPGKAPKLILYEVTKRPSGVSNRFSGSKSGNTASLAISGLQAEDEADYYCCSYAGSSTWVFGGGTKLTVL
As to B3, the Kd in the test with SARS-CoV-2 RBD [1] came to 0.12 nM.

B4: BD-604 (antibody, V domains shown)
VH: EVQLVESGGGLIQPGGSLRLSCAASGIIVSSNYMTWVRQAPGKGLEWVSVIYSGGSTFYADSVKGRFTISRDNSKNTLYLQMSSLRAEDTAVYYCARDLGPYGMDVWGQGTTVTVSS
VL: DIQLTQSPSFLSASVGDRVTITCRASQGISSDLAWYQQKPGKAPNLLIYAASTLQSGVPSRFSGSGSGTEFTLTISSLQPEDFATYYCQQLNSDLYTFGQGTKLEIK
In turn, B4 returned a Kd with SARS-CoV-2 RBD [1] of 0.012 nM.

B5: BD-508 (antibody, V domains shown)
VH: EVQLVESGGGLVQPGGSLRLSCAASGFIVSSNYMTWVRQAPGKGLEWVSVIYSGGSTFYADSVKGRFTISRHNSKNTLFLQMNSLRAEDTAVYYCARDAQNYGMDVWGQGTTVTVSS
VL: DIQMTQSPSSLSASVGDRVTITCRASQSISSYLNWYQQKPGKAPKLLIFAASSLQTGAPSRFSGSGSGTDFTLTISSLQPEDFATYYCQQSYSTPPYTFGQGTKLEIK
As for B5, binding with SARS-CoV-2 RBD [1] was put at a Kd of 1.3 nM. In the test with SARS-CoV-2 RBD [2], this molecule yielded a koff of 0.000514 s⁻¹.
